The RNAGym collection of RNA variant scans (doi:10.1073/pnas.2313332121)
This sample holds only a part of the variants without activity.

B1: TPR 5TU (parent)
chain: GGAUCUUCUCGAUCUAACAAAAAAGACAAAUCUGCCACAAAGCUUGAGAGCAUCUUCGGAUGCAGAGGCGGCAGCCUUCGGUGGCGCGAUAGCGCCAACGUUCUCAACUAUGACACGCAAAACGCGUGCUCCGUUGAAUGGAGUUUAUCAUG

Variants of: B1
Assay: polymerase ribozyme fitness, log enrichment relative to wild type (log ratio); higher = more active; in vitro selection for triplet polymerase activity
Summary of the method: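 After PCR construction and transcription, each subunit's mutant library from a heterodimeric triplet polymerase ribozyme was annealed with a biotinylated primer, the partner subunit and triplets. Incubation was frozen, at −7 °C, and extended constructs were gel-excised, bound to streptavidin beads and amplified by RT-PCR, in one selection round done in triplicate. Fitness is the logarithm of a genotype's enrichment divided by that of the wild type, from inverse-variance-weighted replicate averages of Illumina-sequenced inputs and outputs. The base of the logarithm is 2, and genotypes needed ≥10 input reads and ≥1 read per output.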

| Variant | polymerase ribozyme fitness (log ratio) |
| --- | --- |
| A41G G84U | -0.79 |
| A41C U53G | -3.43 |
| A41C C57G | -1.09 |
| A41C A113U C114A | ≤ -4.2 |
| A41C G50C G83U C95A C99U C105G A137C | ≤ -4.2 |
| A41C C57A C96U U134C | -0.224 |
| A41G U53A C85A | -2.72 |
| A41C A137G C149U | -2.44 |
| A41C G46U C76A U102A C131G | ≤ -4.2 |
| A41U U61A G68U A107C U145G | ≤ -4.2 |
| G42A C79G U144C | ≤ -4.2 |
| G42A G48A U102C C103A | ≤ -4.2 |
| A41G C96A | 0.0745 |
| A41G G65A G143U | -3.42 |
| A41C C87G G100C G126A A142C | ≤ -4.2 |
| A40U G88C U101G | ≤ -4.2 |
| A41C U61A A138U | -3.7 |
| A41G G59A G81U C95A C114U | -1.27 |
| A41C C63U C76G C93A U127A | ≤ -4.2 |
| A41C G67C G68A G88C G92A A107C | ≤ -4.2 |
| A40U G86A | -0.914 |

| Variant | polymerase ribozyme fitness (log ratio) |
| --- | --- |
| A41G C57G C76U G94A A110G C116G U139G | -4.11 |
| A40U C93U U101G G128U | -4.04 |
| A41C C57A C87U C114G | -3.91 |
| A41C C87U | -1.35 |
| A41C C87G | ≤ -4.2 |
| A41C C93G | -3.5 |
| A40U G50C C85G C99U A137U U148G | ≤ -4.2 |
| G42A A52C C54A U56C G94C | ≤ -4.2 |
| A40U U55A U101C A120C | -0.406 |
| A40U G68A C116A A137U | ≤ -4.2 |
| A41U C75A C93U | ≤ -4.2 |
| A41C A49C G81A A97C C103G G124U U134C | ≤ -4.2 |
| A40U C87U G88U | ≤ -4.2 |
| A40U G48C C85G C99A G143A | ≤ -4.2 |
| A40U G86A G141A | -1.06 |
| A41G U55A C93U | -0.68 |
| A41U G133U U135A A142G A147U | ≤ -4.2 |
| A41U U82A A142C | -2.88 |
| G42A C85U | ≤ -4.2 |
| A41U G83C G126A | -2.3 |
| A41C G68C | ≤ -4.2 |

| Variant | polymerase ribozyme fitness (log ratio) |
| --- | --- |
| A40U G94U G136C | -4.02 |
| A41G G58C U61C U82G C87G U104G C118G G141U | ≤ -4.2 |
| A41C U82C | -1.14 |
| A41C G50A G74A U82G C95U A107C | ≤ -4.2 |
| G42A A60G C87G | ≤ -4.2 |
| G42A C51G C75G C99U | ≤ -4.2 |
| A41U G50C C76U C93G A138G A150U | ≤ -4.2 |
| A41U A73U | -1.65 |
| A41U G84A C96U A107C A147C | ≤ -4.2 |
| A41G C54G U104A A119G G126U | -1.16 |
| A41G G50C C85U C87A C103U C105G A115U | ≤ -4.2 |
| A41G C54G G84A U148C | -3.53 |
| A41C C93U A97C U102G | ≤ -4.2 |
| A40U U53A | -0.83 |
| A40U U53C | 0.103 |
| A41C U55A A97G | -0.161 |
| A41C C54A U82G G94U | -3.5 |
| A41C U127C | -2.04 |
| A41C A47U G59U U61A G70C G84U C125A | ≤ -4.2 |
| A41G A49U G59U C85A C105U A106G A121U U134C | ≤ -4.2 |
| G42A A142C U148G | ≤ -4.2 |

| Variant | polymerase ribozyme fitness (log ratio) |
| --- | --- |
| A41C U53C C125G U144A | -2.53 |
| A40U G50C A52G C85A U90C A97U | ≤ -4.2 |
| A40U G84U C85A | -0.755 |
| A41C C72G A106G G143C U151G | ≤ -4.2 |
| A41C G80A C87A | ≤ -4.2 |
| A41U U144G G152A | -1.09 |
| A41G U53A U56C C76A A98G | -1.92 |
| G42A C116G | -3.99 |
| A41G U44A U55A | -3.41 |
| A41C C95U A119G | -0.978 |
| A41U U82G G86U A97U G124C | -3.18 |
| A41U C54G G65C G84U G141A C149A | ≤ -4.2 |
| A41C U45A G68A C85A C118G C129U U144C U146A | ≤ -4.2 |
| A41G A52G C87U U144G U148G | -3.95 |
| A41U C93A | -3.19 |
| A41C G94A U104G A113C C116G | ≤ -4.2 |
| A41G G59A U61A | -0.462 |
| G42A C87G | ≤ -4.2 |
| A41C U135G | -3.54 |
| A41C A49C | -4.01 |
| A41C A49C G50U C51A G92C A106G | ≤ -4.2 |
